From patent US20080044411A1 come the findings set out here.

The experiment has as its target GLP-1 R expressed in Rinm cells. Put plainly: cell-based or functional assay.

Consider “GLP-1 peptide (from UniProt P01275 98-128)”, for which the cAMP activity in Rinm cells, EC50 came to 0.4 nM.
